Among the data in article PMC5562350 are Kd values, retold here.

The term Kd denotes the equilibrium constant for the complex coming apart.

The target in this experiment is Man9-V3 glycopeptide (HIV-1 (strain not stated)).

DH270.1 (antibody): the Kd stood at 0.331 µM.

For DH270.IA2 (antibody), the Kd is greater than 10 µM.

The molecule DH270.IA3 (antibody) came in with a Kd greater than 10 µM.

Molecule DH270.IA4 (antibody) gave a Kd greater than 10 µM.

Take DH270.UCA (antibody): the Kd was greater than 10 µM.

B1: DH270.6 (antibody, V domains shown)
VH: QVQLVQSGAQMKNPGASVKVSCAPSGYTFTDFYIHWLRQAPGQGLQWMGWMNPQTGRTNTARNFQGRVTMTRDTSIGTAYMELRSLTSDDTAIYYCTTGGWISLYYDSSYYPNFDHWGQGTLLTVSS
VL: QSALTQPASVSGSPGQSITISCTGTKYDVGSHDLVSWYQQYPGKVPKYMIYEVNKRPSGVSNRFSGSKSGNTASLTISGLRAEDEADYYCCSFGGSATVVCGGGTKVTVL
B1 had a Kd of 0.188 µM.
